Biological target: CaV1.2 truncated at aa 1820, fused to YFP (CaV1.2^Δ1820-YFP) (UniProt P15381)

Substance: Distal C-terminal domain of CaV1.2 fused to Renilla luciferase (DCtermD-RLuc) (domain or fragment)
- CDI fraction of CaV1.2^Δ1820 at 0 mV, without versus with DCtermD overexpressed: 0.03

Reference: paper PMC11067984
